The text below walks through data of US20250042994A1 (HAINAN SIMCERE ZAIMING PHARMACEUTICAL, published 2025).

For assay [1], the target named is T1, Human CD19-his protein (human, UniProt P15391 20-291).
T1 construct: bought protein; also called human CD19 protein; recombinant human CD19-His; not shown: His tag
T1 sequence (looked up): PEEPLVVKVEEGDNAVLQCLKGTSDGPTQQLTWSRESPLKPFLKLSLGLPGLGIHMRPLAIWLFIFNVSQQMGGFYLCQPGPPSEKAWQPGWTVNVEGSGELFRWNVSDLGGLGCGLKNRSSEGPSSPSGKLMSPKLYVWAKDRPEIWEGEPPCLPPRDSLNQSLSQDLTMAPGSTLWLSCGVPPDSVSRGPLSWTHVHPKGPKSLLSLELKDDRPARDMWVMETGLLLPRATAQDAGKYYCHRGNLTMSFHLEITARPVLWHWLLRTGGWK
The experiment in a line: ELISA, antibody at 1.00 nM. The procedure: (§1) Human CD19-his protein (purchased from ACROBiosystems, catalog number: CD9-H52H2) was diluted with PBS to a final concentration of 4 μg/mL, and then added to a 96-well ELISA plate at 100 μl/well. The plate was sealed with a plastic film and incubated overnight at 4° C., the plate was washed 2 times with PBS the next day, and then a blocking solution [PBS+2% (w/w) BSA] was added for blocking at room temperature for 2 h. The blocking solution was poured off, and 100 nM gradiently diluted CD19 chimeric antibody or control antibody was added at 50 μl/well. After incubation at 37° C. for 2 h, the plate was washed 3 times with PBS. […] TMB substrate was added at 50 μl/well, and incubated at room temperature for 10 min, and then a stop solution (1.0 N HCl) was added at 50 μl/well. The OD450 nm values were read by an ELISA microplate reader (Multimode Plate Reader, EnSight, purchased from Perkin Elmer).
In general terms: In an ELISA, binding on a coated surface is turned into a signal by an enzyme label.

In assay [2] the target is T1, Human CD19-his protein. Briefly: ELISA, antibody at 0.10 nM. The procedure: as §1
Assay [3] has as its target T1, Human CD19-his protein. The experiment in a line: ELISA, antibody at 10 nM. As to the method:
as §1

Assay [4] addresses T1, Human CD19-his protein. The experiment in a line: ELISA, antibody at 0.001 nM. As to the method: as §1
The target of assay [5] is T1, Human CD19-his protein. The experiment in a line: ELISA, antibody at 0.0001 nM. As to the method:
as §1

For assay [6], the target named is T2, human CD19 exon1-3-his protein (human, UniProt P15391 20-186, limits assumed).
T2 construct: made in HEK293E cells; also called membrane-distal end; not shown: His tag
T2 sequence (looked up): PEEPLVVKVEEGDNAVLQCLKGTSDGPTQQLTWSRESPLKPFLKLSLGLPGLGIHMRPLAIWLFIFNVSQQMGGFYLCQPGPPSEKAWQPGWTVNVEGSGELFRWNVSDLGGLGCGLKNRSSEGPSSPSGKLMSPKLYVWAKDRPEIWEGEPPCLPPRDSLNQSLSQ
Briefly: ELISA, coated at 2 ug/mL. The procedure: as §1
CD19 protein contains 4 exons in the extracellular region, in which exons 1-3 are located at the membrane-distal end and exon 4 is located at the membrane-proximal end. […] To identify the distribution of antigen binding epitopes of the chimeric antibodies, human CD19 exon 1-3-His (membrane-distal end) was used to coat at 2 μg/mL according to the ELISA method in example 5.1.

The target of assay [7] is T1, Human CD19-his protein. Briefly: ELISA, antibody at 100 nM. The procedure: as §1
For the next assay, the target named is T3, murine CD19 protein (murine, UniProt P25918 17-287, limits assumed).
T3 construct: bought protein; also called commercial murine CD19
T3 sequence (looked up): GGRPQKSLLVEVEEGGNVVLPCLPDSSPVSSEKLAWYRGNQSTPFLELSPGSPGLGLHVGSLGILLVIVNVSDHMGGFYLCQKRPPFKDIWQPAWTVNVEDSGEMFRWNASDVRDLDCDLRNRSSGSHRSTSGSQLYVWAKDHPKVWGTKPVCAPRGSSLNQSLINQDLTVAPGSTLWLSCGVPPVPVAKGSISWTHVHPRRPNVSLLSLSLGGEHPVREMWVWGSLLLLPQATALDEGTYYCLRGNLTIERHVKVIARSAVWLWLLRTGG
The experiment in a line: ELISA, coated murine CD19. As to the method:
as §1
In order to detect the species cross-binding activity of the chimeric antibodies, an ELISA plate was coated with commercial murine CD19 (ACROBiosystems, catalog number: 50510-M08H) and monkey CD19 (ACROBiosystems, catalog number: 90051-C08H), respectively, and the ELISA detection was performed according to the method in example 5.1.

Assay [8] addresses T1, Human CD19-his protein. Briefly: ELISA, antibody at 0.01 nM. As to the method: as §1

B1: F4.58.6 (antibody, human IgG1, V domains shown)
VH: QVQLQQPGAELVKPGASVKLSCKASGYTFTSYWMHWVKQRPGQGLEWIGEIDPSDSYSNYNQKFKGKATLTVDKSSSTAYMQLSSLTSEDSAVYYCARSNYGSSYGYFDVWGAGTTVTVSS
VL: QIVLTQSPAIMSASPGEKVTMTCSVSSSLSYMHWYQQKPGTSPKRWIYDTSKLASGVPARFSGSGSGTSYSLTISSMEAEDAATYYCHQRSSYPTFGGGTKLEIK
notes: human-murine chimeric antibody, human IgG1
Turning to B1, the OD450 in the assay with Human CD19-his protein [1] was found to be 0.67; in the assay with Human CD19-his protein [2], 0.3; in the assay with Human CD19-his protein [3], 0.8; with Human CD19-his protein [4], 0.05; in the assay with Human CD19-his protein [5], 0.05; in the assay with Human CD19-his protein [7] it was 0.94. The molecule further showed an OD450 with Human CD19-his protein [8] of 0.09. Also, the binding result (in assay [6]; in the assay with murine CD19 protein) was “no binding” throughout.

B2: F6.5.20 (antibody, human IgG1, V domains shown)
VH: QVQLQQPGAELVKPGASVKLSCKASGYTFTSYWMQWVKQRPGQGLEWIGEIDPSDSYTNYNQKFKGKASLTVDTSSSTAYMQLSSLTSEDSAVYYCARWGLLRNYYVMDYWGQGTSVTVSS
VL: EIVLTQSPTTMAASPGEKITITCSASSSISSNYLHWYQQKPGFSPKLLIYRTSNLASGVPARFSGSGSGTSYSLTIGTMEAEDVATYYCQQGSSIPRMLTFGAGTKLELK
notes: as for B1
As to B2, the OD450 with Human CD19-his protein [1] stood at 0.45; with Human CD19-his protein [2], 0.34; with Human CD19-his protein [3], 0.43; with Human CD19-his protein [4], 0.06; in the assay with Human CD19-his protein [5] it was 0.05; in the assay with Human CD19-his protein [7] it was 0.63. Moreover, the OD450 with Human CD19-his protein [8] was found to be 0.1. For the same molecule, the binding result (in assay [6]; with murine CD19 protein) was “no binding” throughout.

B3: F4.276.12 (antibody, human IgG1, V domains shown)
VH: EIQLQQSGPELVKPGASVKVSCKASGYAFSAYNMYWVKQSHGKSLEWIGYIDPYNGGTNYNQKFKGKATLTVDKSSSTAYMHLNSLTSEDSAVYYCARDGYEVTYWGQGTLVTVSA
VL: QIVLTQSPALMSASLGEEITLTCSASSSVTYMHWSQQKSGTSPRLLIYSTSNLASGVPSRFSGSGSGTFYSLTISSVEAEDAADYYCHQWSSYPWTFGGGTKLEIK
notes: as for B1
With B3, the OD450 was determined as 1.07 in the assay with Human CD19-his protein [1]; 0.4 with Human CD19-his protein [2]; 1.2 with Human CD19-his protein [3]; 0.06 in the assay with Human CD19-his protein [4]; 0.05 with Human CD19-his protein [5]; 1.43 with Human CD19-his protein [7]. In the assay with Human CD19-his protein [8], the OD450 was found to be 0.13. The binding result (in assay [6]; with murine CD19 protein) was “no binding” throughout.

B4: F4.96.6 (antibody, human IgG1, V domains shown)
VH: EIQLQQSGPELVKPGASVKVSCKASGYAFSAYNIYWVKQSHGKSLEWIGYIDPYNSGTTYNQKFRGKATLTVDKSSNTAYMHLSSLTSEDSAVYYCTRDGDAMDYWGQGTSVTVSS
VL: EILLTQSPAIIAASPGEKVTITCSASSGVIYMNWYQQKPGSSPKIWIYDVSTLASGVPARFSGSGSGTSFSFTINSMEAEDVATYYCQQRSSYPYTFGGGTKLEIK
notes: as for B1
Take B4: the OD450 in the assay with Human CD19-his protein [1] was 0.91; with Human CD19-his protein [2] it was 0.29; with Human CD19-his protein [3], 1.16; with Human CD19-his protein [4], 0.06; with Human CD19-his protein [5] it was 0.05; with Human CD19-his protein [7], 1.64. The OD450 with Human CD19-his protein [8] was 0.11. Further, the binding result (in assay [6]; in the assay with murine CD19 protein) was “no binding” each time.

B5: F4.49.11 (antibody, human IgG1, V domains shown)
VH: DVQLRASGPGLVKPSQSLSLTCSVTGYSITSGYYWNWIRQFPGNKLEWMGCISYDGTNNYNPSLKNRISFTRDTSKNQFFLNLNSVTTEDSATYYCARRVYYRYDGVVDYWGQGTSVTVSS
VL: ENVLTQSPAIMSASPGEKVTMTCSASSSVSYIHWYQQKSSTAPKLWIYDTSKLASGVPGRFSGSRSRNSYSLTISSMEAEDVATYYCFQGSGYPLTFGSGTKLEIK
notes: as for B1
As for B5, the OD450 amounted to 0.48 with Human CD19-his protein [1]; 0.13 with Human CD19-his protein [2]; 0.85 with Human CD19-his protein [3]; 0.05 with Human CD19-his protein [4]; 0.04 with Human CD19-his protein [5]; 1.16 with Human CD19-his protein [7]. In addition, in the assay with Human CD19-his protein [8], the OD450 stood at 0.07. The binding result (in assay [6]; in the assay with murine CD19 protein) was “no binding” throughout.

B6: F6.2.9 (antibody, human IgG1, V domains shown)
VH: QVQLQQSGAELVKPGASVKISCKASGYAFSSYWMNWVKQRPGKGLEWIGQIYPGDGDTNYNGKFKGKATLTADKSSSTGYMQLSSLTSEDSAVYFCARSRITSVVDWYFDVWGTGTTVTVSS
VL: QIVLSQSPAILSASPGEKVTMTCRASSSVSYMHWYQQKPGSSPKPWIYATSNLASGVPARFSGSGSGTSYSLTISRVEAEDAATYYCQQWSSNPPTFGAGTKLELK
notes: as for B1
As to B6, the OD450 with Human CD19-his protein [1] is 0.13; in the assay with Human CD19-his protein [2], 0.08; in the assay with Human CD19-his protein [3], 0.26; with Human CD19-his protein [4] it was 0.06; with Human CD19-his protein [5], 0.06; in the assay with Human CD19-his protein [7], 0.33. Also, the OD450 with Human CD19-his protein [8] came to 0.06. In addition, the binding result (in assay [6]; in the assay with murine CD19 protein) was “no binding” each time.

B7: F6.12.12 (antibody, human IgG1, V domains shown)
VH: DVQLQESGPGLVKPSQSLSLTCSVTGYSITSGYYWIWIRQFPGNKLEWMGYISYDASNKYKPSLKNRISITRDTSKNQFFLKLNSVTAEDTATYFCAREDLRGYFDVWGTGTSVTVSS
VL: DIVLTQSPASLAVSLGRRATISCRASQSVSTSGFSYMHWYQQKPGQPPNLLIKYASILQSGVPARFSGSGSGTDFILNIHPVEDVDTATYYCQHSWGIPFTFGSGTKLEIK
notes: as for B1
In the case of B7, the OD450 with Human CD19-his protein [1] was found to be 0.71; in the assay with Human CD19-his protein [2], 0.39; with Human CD19-his protein [3], 1.08; with Human CD19-his protein [4], 0.06; with Human CD19-his protein [5] it was 0.05; in the assay with Human CD19-his protein [7], 1.32. The OD450 with Human CD19-his protein [8] was found to be 0.1. Besides, the binding result (in assay [6]; with murine CD19 protein) was “no binding” throughout.

B8: F4.37.6 (antibody, human IgG1, V domains shown)
VH: QVQLQQSGAELARPGASVKLSCKASGYTFTSFWMQWLKQRPGQGLEWIGTIYPGDGDTRYTQKFKGKATLTADKSSNTAYMQLSSLASEDSAVYYCARGALSNYGGFAYWGQGTLVTVSA
VL: NIVLTQSPASLAVSLGQRATISCRASESVDSYGHSFMHWYQQKPGQPPKLLIYLASNLESGVPARFSGSGSRTDFTLTIDPVEADDAATYYCQQNNEDPWTFGGGTKLEIK
notes: as for B1
B8: the OD450 with Human CD19-his protein [1] turned out to be 0.8; with Human CD19-his protein [2], 0.6; with Human CD19-his protein [3] it was 1; with Human CD19-his protein [4] it was 0.09; with Human CD19-his protein [5], 0.07; with Human CD19-his protein [7], 1.08. In addition, the OD450 with Human CD19-his protein [8] stood at 0.2. The binding result (in [6]; in the assay with murine CD19 protein) was “no binding” in each case.
